# Reference: patent US20230218738A1 (Pfizer, published 2023)
# Positions count from the first letter of the chain named.
# T1: RSV F protein mutant pXCS888 (RSV A2, UniProt P03420 26-109)
# T1 chain 1: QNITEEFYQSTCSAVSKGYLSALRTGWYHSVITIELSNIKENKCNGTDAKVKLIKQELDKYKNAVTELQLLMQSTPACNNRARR
# T1 chain 2: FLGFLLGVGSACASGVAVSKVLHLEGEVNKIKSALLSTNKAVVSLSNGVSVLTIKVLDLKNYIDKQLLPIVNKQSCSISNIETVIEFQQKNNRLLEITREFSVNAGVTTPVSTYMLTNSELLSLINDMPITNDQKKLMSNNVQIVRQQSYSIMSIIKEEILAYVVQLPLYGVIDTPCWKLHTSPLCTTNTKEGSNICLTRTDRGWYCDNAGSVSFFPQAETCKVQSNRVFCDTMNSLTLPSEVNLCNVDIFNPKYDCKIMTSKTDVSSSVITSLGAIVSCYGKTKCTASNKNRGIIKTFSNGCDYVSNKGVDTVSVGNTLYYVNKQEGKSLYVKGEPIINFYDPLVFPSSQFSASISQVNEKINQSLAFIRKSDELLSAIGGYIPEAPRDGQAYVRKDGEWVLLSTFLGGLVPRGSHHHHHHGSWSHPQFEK
# T2: RSV F protein mutant pXCS830 (RSV A2, UniProt P03420 26-109)
# T2 chain 1: T1 chain 1 with S30C, C78T
# T2 chain 2: T1 chain 2 with C12I, L52C, I160V, S350D, Q351E, S353D
# T3: RSV F protein mutant pXCS856 (RSV A2, UniProt P03420 26-109)
# T3 chain 1: T1 chain 1 with S30C, C78T
# T3 chain 2: T1 chain 2 with C12I, L52C, I54S, Q351E, S353D
# T4: RSV F protein mutant pXCS886 (RSV A2, UniProt P03420 26-109)
# T4 chain 1: T1 chain 1
# T4 chain 2: T1 chain 2 with I160V
# B1: AM22 (antibody, V domains shown)
# VH: QVQLVQSGAEVKKPGATVKVSCKISGHTLIKLSIHWVRQAPGKGLEWMGGYEGEVDEIFYAQKFQHRLTVIADTATDTVYMELGRLTSDDTAVYFCGTLGVTVTEAGLGIDDYWGQGTLVTVSS
# VL: EIVLTQSPGTLSLSPGERATLSCRASQIVSRNHLAWYQQKPGQAPRLLIFGASSRATGIPVRFSGSGSGTDFTLTINGLAPEDFAVYYCLSSDSSIFTFGPGTKVDFK
# B2: MPE8 (antibody, V domains shown)
# VH: EVQLVESGGGLVKPGGSLRLSCAASGFTFSSYSMNWVRQAPGKGLEWVSSISASSSYSDYADSAKGRFTISRDNAKTSLFLQMNSLRAEDTAIYFCARARATGYSSITPYFDIWGQGTLVTVSS
# VL: QSVVTQTPSVSGAPGQRVTISCTGSSSNIGAGYDVHWYQQLPGTAPKLLIYDNNNRPSGVPDRFSASKSGTSASLAITGLQAEDEADYYCQSYDRNLSGVFGTGTKVTVL
# notes: also called MPEG
# Columns and labels:
# Experiment in all cases: BLI (Octet), F on anti-HIS tip, 20 nM mAb
# [1] = target: T1, RSV F protein mutant pXCS888
# [2] = target: T2, RSV F protein mutant pXCS830
# [3] = target: RSV F protein mutant pXCS889 (RSV A2, UniProt P03420 26-109)
# [4] = target: RSV F protein mutant pXCS891 (RSV A2, UniProt P03420 26-109)
# [5] = target: RSV F protein mutant pXCS884 (RSV A2, UniProt P03420 26-109)
# [6] = target: T3, RSV F protein mutant pXCS856
# [7] = target: T4, RSV F protein mutant pXCS886
# [8] = target: RSV F protein mutant pXCS777 (RSV A2, UniProt P03420 26-109)
# [9] = target: RSV F protein mutant pXCS885 (RSV A2, UniProt P03420 26-109)
binder,measurement,setting,value
B1,Response (nm shift),[1],0.434 nm
same,Response (nm shift),[2],0.465 nm
same,Response (nm shift),[3],0.477 nm
same,Response (nm shift),[4],0.461 nm
same,Response (nm shift),[5],0.323 nm
same,Response (nm shift),[6],0.568 nm
same,Response (nm shift),[7],0.443 nm
same,Response (nm shift),[8],0.121 nm
same,Response (nm shift),[9],0.105 nm
B2,Response (nm shift),[1],0.878 nm
same,Response (nm shift),[2],0.923 nm
same,Response (nm shift),[3],0.889 nm
same,Response (nm shift),[4],0.92 nm
same,Response (nm shift),[5],0.784 nm
same,Response (nm shift),[6],1.06 nm
same,Response (nm shift),[7],0.863 nm
same,Response (nm shift),[8],0.27 nm
same,Response (nm shift),[9],0.408 nm
